Type in all cases: cell-based
The subject of assay [1] is several bacterial and fungal species. The experiment in a line: Comparative MIC assays, all tested organisms. The note with it: bacterial species of Table 3, all tested species. As for the experimental part:
(§1) The antimicrobial potential of the peptides described herein was compared with the activity of two other AMPs, TcAMP1 and TcAMP2 as discussed in WO1998027805, and antibiotics or fungicides. Comparative MIC assays were carried out against several bacterial and fungal species (Table 1).
(§2) Peptides according to SEQ ID N° 1, SEQ ID N° 2, SEQ ID N° 4, SEQ ID N° 6, and SEQ ID N° 7 were serially diluted in order to create a concentration sequence ranging from 0.39 μg/ml to […].
(§3) Pantoea, Staphylococcus, and Listeria were cultured in Trypticase Soy Broth (TSY) medium consisting of 1.7% casein peptone, 0.3% soy peptone, 0.25% glucose, 0.5% NaCl, 0.25% K2HPO4 and optionally 1.5% agar. Candida cells were cultured in Yeast Extract Peptone Dextrose (YPD) broth medium consisting of 1% yeast extract, 2% peptone, 2% glucose, and optionally 2% agar. Ceratocystis, Botrytis, Leptosphaeria, Mycosphaerella, Sclerotinia, and Verticillium were cultured in Potato Dextrose Agar (PDA) medium consisting of 2.4% Difco pre-mix broth and optionally 1.5% agar.
For the MIC assay bacteria and fungi were grown on agar plates with their respective media. […] The optical density (OD) at 600 nm was measured after one to five days and adjusted to an OD600 of 1. […]
To evaluate MICs, 96-well plates were prepared with the test antimicrobial peptides. […] Results were visually evaluated and MICs determined based on growth or no-growth. […]

The next assay relates to Ceratosystis paradoxa. The assay can be described thus: organism not typed. As to conditions: Ceratosystis paradoxa DSMZ 63054, PDA, 18° C., overnight. As for the experimental part:
as §1, §2, §3
(§4) For the MIC assay bacteria and fungi were grown on agar plates with their respective media. Pre-cultures were prepared by inoculating either single bacterial colonies or small pieces of fungi in 5 ml of the respective liquid medium. The optical density (OD) at 600 nm was measured after one to five days and adjusted to an OD600 of 1. This cell suspension was used to prepare 1:500 dilutions, corresponding to approximately 2×10^6 microbial cells per ml.
(§5) To evaluate MICs, 96-well plates were prepared with the test antimicrobial peptides. Each well contained 100 μl microbial cell culture, 90 μl culture medium, and 10 μl peptide or control at the corresponding dilution. The plates were incubated overnight (ON) at the optimal growth temperature for each tested organism (Table 1). Results were visually evaluated and MICs determined based on growth or no-growth.
(§6) MIC assays were conducted in at least two independent replicates and with different peptide starting concentrations.

A further assay concerns Pantoea agglomerans. As to conditions: Pantoea agglomerans JUB-CC-3253, TSY, 37° C., overnight. Here is the method: as §1, §2, §3, §4, §5, §6
The test system of the next assay is Erwinia amylovora. The experiment in a line: MIC assay in soil slurry. As for the experimental part: In vitro experiments were conducted to test the behavior of the peptides as disclosed herein in soil slurry, against Erwinia amylovora. Soil slurry was generated by mixing 5 g soil in 20 ml water. This mixture was incubated for 1 h at an overhead shaker. The solid parts were removed by centrifugation and the obtained supernatant, referred to as soil slurry, was used for the MIC assay. Equal volumes of the peptide according to SEQ ID N°1 (8 mg/ml) and soil slurry were mixed and incubated overnight at 28° C. The mixture was used for MIC against Erwinia amylovora.

In the next assay the test system is E. coli. The experiment in a line: MIC assay, E. coli. Here is the method: as §1, §2, §4, §5, §6
In a further assay the test system is C. albicans. The assay can be described thus: Peptide stability in bodily fluids (sheep blood, urine), MIC against C. albicans. The note with it: Candida albicans. Here is the method: In vitro experiments were conducted to test the behavior of the peptides as disclosed herein in blood, against C. albicans. C. albicans isolates from human blood were used (DSMZ 6569). The peptide according to the SEQ ID N° 1 was adjusted to a concentration of 1 mg/ml and mixed with sheep blood in equal parts. This mixture was incubated overnight at 30° C. To remove solid parts of the blood, the mixture was centrifuged and the obtained plasma supernatant was used for MICs.
In vitro experiments were conducted to test the behavior of the peptides as disclosed herein in urine, against C. albicans. The peptide according to the SEQ ID N° 1 was adjusted to a concentration of 1 mg/ml and mixed with synthetic urine or human urine in equal parts. These mixtures were incubated overnight at 30° C. To remove solid parts of the urine, the mixture was centrifuged and the obtained supernatant was used for MICs.

The test system of assay [2] is Listeria monocytogenes. The experiment in a line: Cow milk assay, MIC against Listeria monocytogenes. As for the experimental part:
In vitro experiments were conducted to test the behavior of the peptides as disclosed herein in 3.5% fat cow milk, against Listeria monocytogenes. The peptide according to the SEQ ID N° 1 was adjusted to a concentration of 1 mg/ml and mixed with cow milk in equal parts. This mixture was incubated overnight at 37° C. To remove solid parts of the milk, the mixture was centrifuged and the obtained supernatant was used for MICs.

The subject of another assay is Mycosphaerella pinodes. The experiment in a line: microbe, parasite or virus in culture. The note with it: Mycosphaerella pinodes DSMZ 62763, PDA, 30° C., overnight. As for the experimental part:
as §1, §2, §3, §4, §5, §6

The test system of another assay is Sclerotinia sclerotiorum. The experiment in a line: microbe, parasite or virus in culture. As to conditions: Sclerotinia sclerotiorum SF 79, PDA, 18° C., overnight. Here is the method: as §1, §2, §3, §4, §5, §6
The next assay has as its system Leptosphaeria maculans. The assay can be described thus: microbe, parasite or virus in culture. The note with it: Leptosphaeria maculans SF 70, PDA, 18° C., overnight. Here is the method: as §1, §2, §3, §4, §5, §6
For the next assay, the system named is Candida albicans. The experiment in a line: microbe, parasite or virus in culture. The note with it: Candida albicans DSM 1386, YPD, 30° C., overnight. Here is the method:
as §1, §2, §3, §4, §5, §6

The next assay relates to Botrytis cinerea. The assay can be described thus: microbe, parasite or virus in culture. The note with it: Botrytis cinerea DSMZ 877, PDA, 24° C., overnight. As for the experimental part:
as §1, §2, §3, §4, §5, §6

In a further assay the test system is Verticillium dahliae. The experiment in a line: microbe, parasite or virus in culture. The note with it: Verticillium dahliae SF 76, PDA, 28° C., overnight. As for the experimental part:
as §1, §2, §3, §4, §5, §6

The subject of assay [3] is Staphylococcus aureus MRSA. The experiment in a line: microbe, parasite or virus in culture. The note with it: Staphylococcus aureus MRSA DSM 11729, TSY, 37° C., overnight. As for the experimental part: as §1, §2, §3, §4, §5, §6
The test system of assay [4] is Listeria monocytogenes. The assay can be described thus: microbe, parasite or virus in culture. The note with it: Listeria monocytogenes DSM 102976, TSY, 37° C., overnight. Here is the method:
as §1, §2, §3, §4, §5, §6

B1: SEQ ID No 1: Antimicrobial peptide from the N-terminal region of Theobroma cacao (CCN-51) vicilin protein, 15 kDa spot; natural, recombinant or synthetic (peptide)
chain: YGRKQYERDPRQQYEQCQRRCESEATEEREQEQCEQRCEREYKEQQRQQEEELQRQYQQCQGRCQEQQQGQREQQQCQRKCWEQYKEQERGEHENYHNHKKN
modifications: Theobroma cacao
notes: Antimicrobial peptide from the N-terminal region of Theobroma cacao (CCN-51) vicilin protein, 15 kDa spot; natural, recombinant or synthetic
For B1, in [1], the “efficiency compared with the prior art peptides” value is reported as “more efficient than the prior art peptides”. The Minimal inhibitory concentration is 5 µg/mL with Ceratosystis paradoxa; 1.1 µg/mL with Pantoea agglomerans; 3.1 µg/mL with E. coli; 0.4 µg/mL in the assay on C. albicans (control, no bodily fluid (and reference drug)); 5 µg/mL with C. albicans (peptide 1 mg/ml mixed with human urine in equal parts, overnight 30° C., supernatant); 25 µg/mL in the assay on C. albicans (peptide 1 mg/ml mixed with sheep blood in equal parts, overnight 30° C., plasma supernatant). Also, the Minimal inhibitory concentration in the assay on C. albicans (peptide 1 mg/ml mixed with synthetic urine in equal parts, overnight 30° C., supernatant) came to 2 µg/mL; with Listeria monocytogenes [2] (control, milk-free (and reference drug)), 3.1 µg/mL; in the assay with Listeria monocytogenes [2] (control, milk-free (and reference drug), listed as SEQ ID N° 1), 3.2 µg/mL; with Listeria monocytogenes [2] (peptide 1 mg/ml mixed with 3.5% fat cow milk in equal parts, overnight 37° C., supernatant) it was 80 µg/mL; with Mycosphaerella pinodes, 1.9 µg/mL; in the assay with Sclerotinia sclerotiorum, 10.25 µg/mL. Further, the Minimal inhibitory concentration was determined as 3.75 µg/mL in the assay on Leptosphaeria maculans; 0.4 µg/mL in the assay on Candida albicans; 6.25 µg/mL with Botrytis cinerea; 1.6 µg/mL in the assay with Verticillium dahliae; 3.1 µg/mL in [3]; 3.1 µg/mL in the assay on Listeria monocytogenes [4]. In addition, the “concentration inhibiting bacteria growth (MIC)” value in the assay with Erwinia amylovora (control conditions) worked out at 15 µg/mL; with Erwinia amylovora (peptide (8 mg/ml) mixed with equal volume of soil slurry, overnight 28° C.) it was 25 µg/mL.

These data come from patent US20250296963A1, “PEPTIDE HAVING ANTIMICROBIAL ACTIVITY” (priority 2022, published 2025).
